# In patent publication US12459987B2, “Monoclonal antibodies for prevention and treatment of herpes simplex viral infections” (priority 2019, dated 2025):
# “Also recorded” adds a separate entry of the source.
# B1: 33B8: monoclonal antibody from germinal center B cell; IgH SEQ ID NO: 28, IgL SEQ ID NO: 30 (antibody, V domains shown)
# VH: EVKLVESGGGLVQPGGSLSLSCATSGFTFTDYYMNWVRQPPGKALEWLGFIRNKANGYTTEYSASVKGRFTISRDNSQSILYLQMNSLRAEDSATYYCACGNYVGYAMDYWGQGTSVTVSSA
# VL: DIVMSQSPSSLAVSAGEKVTMSCKSSQSLLNSRTRKNYLAWYQQKPGQSPKLLIYWASTRESGVPDRFTGSGSGTDFTLTISSVQAEDLAVYYCKQSYNLYTFGGGTKLEIKR
# modifications: 33B8 heavy chain; 33B8 light chain
# Assays:
# uninfected Vero lysate = assay: ELISA binding to control uninfected Vero lysate
# Protocol: (§1) Binding of recombinant antibodies to HSV-2 G lysates was tested by ELISA. Both heavy and light chain V(D)J rearrangements were amplified from selected single B-cell culture wells (22D10, 32H6, 33B8, and 35H7) by standard RT-PCR. These cloned V(D)J rearrangements were introduced into expression vectors. Recombinant antibodies were obtained by co-transfection of these expression vectors into Expi293F cells. ≥4 mg of purified IgGs was obtained (not shown).
# as §1, with “Based on the obtained V(D)J sequences from each B-cell culture, paired heavy and light chains were re-expressed (as recombinant mouse IgG1 and IgG2c antibodies) in Expi293F cells (Kuraoka et al. Immunity 2016; DiLillo et al. Nature Medicine 2013). […] As expected, all recombinant antibodies reacted specifically with HSV-2 G lysates (FIG. 3). […] Binding” for “Binding”, “shown). […]” for “shown).”
# [1] = molecular target: glycoprotein B of HSV-1 (gB-1) (Human herpesvirus 1, UniProt P10211); assay: Luminex multiplex assay, binding to gB-1; details: Table 3 summary
# Protocol: FIGS. 9A and 9B are graphs of median fluorescence intensity (MFI) versus IgG concentration (ng/ml), showing the binding of various recombinant antibodies to gB-1 as measured by Luminex multiplex assay.
# BMPC-23 binds HSV-1 gB (gB-1). The gB-1 binding of the antibodies was determined by Luminex multiplex assay. Mixtures of antigen (gB-1)-conjugated microspheres (1,000 counts each) were added to each well of 96-well filter plates (Millipore). After washing with PBS containing 1% BSA, 0.05% Tween 20 and 0.05% NaN3, serially diluted recombinant antibodies (5E7, 19G7, 18G4, 22E10, 3A2, 17G3, 22D10, 32H6, 33B8, 25H7, BMPC-23, and S5V2-29) were added to the plates and incubated for 2 hours at room temperature, with mild agitation of the plates. Samples were diluted in PBS containing 1% cow milk, 1% BSA, 0.05% Tween 20 and 0.05% NaN3. After washing, PE goat anti-mouse IgG was added to the plates and incubated for 1 hour at room temperature with mild agitation. After washing, microspheres were resuspended in PBS containing 1% BSA, 0.05% Tween 20 and 0.05% NaN3 and fluorescent signals from each microsphere were measured in a Bio-Plex® 3D machine.
# Finding gB-1 specific HSV antibodies. After Nojima culture (single B-cell culture), HSV-specific antibodies were cloned from germinal center B cells and tested for binding to HSV-1 gB-1 by Luminex multiplex assay as described above. FIGS. 9A and 9B show the gB-1 binding results for 10 antibodies in comparison with BMPC-23. With the exception of BMPC-23, the antibodies in Table 3 were derived from germinal center B cells (lymph nodes) taken 15-17 days after primary vaccination with ΔgD-2. BMPC-23 was derived from bone marrow plasmacytes taken 2 weeks post-boost with ΔgD-2. Nucleotide sequences and amino acid sequences for the heavy-chains and light chains are shown in Table 4, as are the amino acid sequences for the light chain and heavy chain CDR1, CDR2, and CDR3.
# HSV-2 = assay: Passive transfer in vivo protection assay, lethal HSV-2 challenge; parameters: species or system mice
# Protocol: Mice were prime-boost immunized with ΔgD-2 and the spleens, draining lymph nodes or bone marrow were isolated. Germinal center (GC) B cells were then cultured on NB-21.2D9 cells (Nojima cultures). After culture, supernatants were screened for the presence of HSV-lysate binding IgG by ELISA. The V(D)J rearrangements amplified from selected GC B-cell cultures for the B-cell antigen receptor (BCR) repertoire analysis in GC B cell clones among individual mice were sequenced. Then, reconstituted antibodies from selected single GC B cell cultures and from single, bone marrow plasmacytes were evaluated for ability to activate the mFcγRIV in vitro and to protect mice in a passive transfer model.
# Both IgG1 and IgG2c forms of 22D10, 33B8, and BMPC-23 antibodies (≥4 mg each) were assessed for reproducibility of in vivo protection assay, and any dependency on Ig isotype for protection. […] To test roles of Ig isotypes on ability to provide protection, IgG1 and IgG2c isotypes of these three antibodies were generated and assessed for ability to activate mFcγRIV signaling (as a measurement for ADCC), and for in vivo protection assay.
# [2] = molecular target: human herpesvirus glycoprotein B (gB) (Human herpesvirus 2, UniProt P08666); assay: Immunoprecipitation-Mass Spectrometry (IP-MS) target identification; type: binding
# Protocol: FIG. 7A-7B. Immunoprecipitation-Mass Spectrometry (IP-MS) was performed to identify the binding targets of 22D10, 33B8, and BMPC-23 antibodies.
# IP-MS was performed to identify the targets of 22D10, 33B8, and BMPC-23 antibodies.
# [3] = tested on: HSV-2 G infected cell lysates; assay: ELISA binding of recombinant antibodies to HSV-2 G infected cell lysates; parameters: species or system HSV-2 G strain
# Protocol: as §1, with “shown). […]” for “shown).”
# Briefly, mice were vaccinated with ΔgD-2 and then 16 days after vaccination, the draining, inguinal lymph nodes were harvested. GC B cells were isolated from these tissues and were cultured in Nojima cultures. Although overall cloning efficiency of GC B cells from these (shipped) tissues was lower than those from freshly isolated tissues (6% vs. 20%), 50 GC clones were obtained that were specific to HSV-2 G strain (HSV-2 G or HSV2-G) lysate. GC B cells from inguinal lymph nodes of mice vaccinated with ΔgD-2 were sorted directly into 96-well plates (1 cell/well). These GC B cells were then cultured in the presence of NB-21.2D9 feeder cells. After culture, presence of IgG was first determined by ELISA, and then the reactivity of culture supernatant IgG against HSV-2 G lysates (HSV-2 G) and uninfected Vero lysates were tested by ELISA.
# Based on the obtained V(D)J sequences from each B-cell culture, paired heavy and light chains were re-expressed (as recombinant mouse IgG1 and IgG2c antibodies) in Expi293F cells (Kuraoka et al. Immunity 2016; DiLillo et al. Nature Medicine 2013). […] As expected, all recombinant antibodies reacted specifically with HSV-2 G lysates (FIG. 3). […] Binding of recombinant antibodies to HSV-2 G lysates was tested by ELISA. Both heavy and light chain V(D)J rearrangements were amplified from selected single B-cell culture wells (22D10, 32H6, 33B8, and 35H7) by standard RT-PCR. These cloned V(D)J rearrangements were introduced into expression vectors. Recombinant antibodies were obtained by co-transfection of these expression vectors into Expi293F cells. ≥4 mg of purified IgGs was obtained (not shown). […] These recombinant antibodies (≥4 mg each) were tested for identification of reacting antigen(s), in an in vitro FcγRIV activation assay (Promega FcγRIV ADCC Reporter Bioassay)(FIG. 4), and in vivo protection assay. […]
molecule,measurement,setting,value
B1,"Binding to control, uninfected Vero lysate",uninfected Vero lysate,did not bind
same,Target antigens,[1],(not gB)
same,Mice protected from lethal challenge,"HSV-2; IgG2c version, overall results from 2 independent experiments, passive transfer",4/10
same,in vivo protection,HSV-2; Table 3 summary,Yes
same,Protection against lethal HSV-2 challenge,"HSV-2; as IgG2c, passive transfer, overall survival, epithelial and neurological assays",significant protection; also recorded: provides protection
same,Binding target identified by IP-MS,[2],human herpesvirus glycoprotein B (gB)
same,Binding of recombinant antibodies to HSV-2 G lysates,"[3]; ELISA, recombinant antibodies expressed in Expi293F cells",Retention of HSV-2 G lysate-binding
same,Binding to HSV-lysate,[3]; Table 3 summary,Yes
